Among the data in patent US9266923B2, “Compositions and methods for treatment of thrombosis and for prolonging survival of stored platelets” (priority 2010, dated 2016) are tail bleeding time and activity in vivo values, retold here.

For one assay, the target named is T1, human GPIbα (Homo sapiens, UniProt P07359).
T1 construct: mice expressing human GPIbα; expressed in transfected cells; host or cells: platelets of transgenic mice (Ware et al., PNAS 97:2803-08 (2000))
Briefly: In vivo anti-thrombotic activity, tail bleeding time in transgenic mice expressing human GPIbα. On the set-up: species or system transgenic mouse. The text has this: (§1) CCP-014 extended tail bleeding time, as measured in Ware et al., Id.

The target in another assay is T2, mouse platelet GPIbα (Mus musculus, UniProt O35930).
T2 construct: endogenous in cells; host or cells: platelets of wild-type mice (in vivo)
T2 sequence (O35930 17-734): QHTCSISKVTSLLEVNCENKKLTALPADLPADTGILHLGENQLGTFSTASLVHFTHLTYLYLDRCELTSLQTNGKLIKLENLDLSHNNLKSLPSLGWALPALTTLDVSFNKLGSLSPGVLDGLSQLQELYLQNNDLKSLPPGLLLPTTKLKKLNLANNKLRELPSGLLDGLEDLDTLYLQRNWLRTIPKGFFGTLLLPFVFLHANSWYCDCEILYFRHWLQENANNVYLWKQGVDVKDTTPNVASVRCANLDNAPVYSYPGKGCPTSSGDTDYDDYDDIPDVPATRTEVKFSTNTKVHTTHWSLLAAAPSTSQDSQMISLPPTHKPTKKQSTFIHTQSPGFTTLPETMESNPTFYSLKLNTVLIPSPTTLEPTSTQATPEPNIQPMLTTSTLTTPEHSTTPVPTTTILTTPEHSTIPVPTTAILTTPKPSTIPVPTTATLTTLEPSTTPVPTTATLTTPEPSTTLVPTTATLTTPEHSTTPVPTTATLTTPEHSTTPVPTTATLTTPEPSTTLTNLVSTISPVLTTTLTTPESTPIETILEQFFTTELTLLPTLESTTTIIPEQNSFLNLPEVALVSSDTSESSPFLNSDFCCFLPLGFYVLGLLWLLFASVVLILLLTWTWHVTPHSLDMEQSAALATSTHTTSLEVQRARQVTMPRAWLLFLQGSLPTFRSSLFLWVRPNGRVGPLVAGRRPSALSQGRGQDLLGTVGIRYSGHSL
T2 sequence (P56400 27-206 partner): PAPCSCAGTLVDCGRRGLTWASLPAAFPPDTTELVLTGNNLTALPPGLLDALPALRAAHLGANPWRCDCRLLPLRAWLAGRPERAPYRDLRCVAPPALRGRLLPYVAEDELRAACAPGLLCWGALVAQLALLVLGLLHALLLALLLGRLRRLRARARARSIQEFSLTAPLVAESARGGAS
T2 sequence (O88186 17-177 partner): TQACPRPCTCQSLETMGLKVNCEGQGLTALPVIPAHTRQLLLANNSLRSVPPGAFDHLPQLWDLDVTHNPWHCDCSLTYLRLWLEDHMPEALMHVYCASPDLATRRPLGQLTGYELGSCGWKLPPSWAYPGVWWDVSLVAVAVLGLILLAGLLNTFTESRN
Briefly: In vivo activity in wild-type mice.
Source text: as §1

T1 sequence (P07359 17-652, one chain of several): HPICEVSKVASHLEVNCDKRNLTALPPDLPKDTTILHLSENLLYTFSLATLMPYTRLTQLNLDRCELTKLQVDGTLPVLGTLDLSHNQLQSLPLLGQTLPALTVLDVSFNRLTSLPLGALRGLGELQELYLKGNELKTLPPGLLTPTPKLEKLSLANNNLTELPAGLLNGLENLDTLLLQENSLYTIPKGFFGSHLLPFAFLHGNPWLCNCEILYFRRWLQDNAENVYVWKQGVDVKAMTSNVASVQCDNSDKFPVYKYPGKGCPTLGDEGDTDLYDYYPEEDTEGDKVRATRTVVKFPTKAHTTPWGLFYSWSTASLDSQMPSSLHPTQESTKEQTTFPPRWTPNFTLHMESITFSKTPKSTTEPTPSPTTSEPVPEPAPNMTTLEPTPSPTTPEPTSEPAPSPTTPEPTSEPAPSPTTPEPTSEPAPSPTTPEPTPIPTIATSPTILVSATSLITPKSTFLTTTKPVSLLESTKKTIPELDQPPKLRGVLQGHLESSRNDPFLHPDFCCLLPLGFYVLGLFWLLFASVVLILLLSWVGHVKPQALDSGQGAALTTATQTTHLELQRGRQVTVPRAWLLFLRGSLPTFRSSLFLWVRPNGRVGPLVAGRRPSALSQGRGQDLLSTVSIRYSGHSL

As to “Ac-A C T E R M A L H N L C G G-NH2 (SEQ ID NO: 1) or Ac-A C T E R M A L H N L C G G K-NH2 (SEQ ID NO: 2) (Ac-ACTERMALHNLCGGK-NH2; cysteine pairing not given here) [CCP-014]”, the tail bleeding time result with human GPIbα (mice expressing human GPIbα, measured as in Ware et al.) is “extended”. Also, the activity in vivo result with human GPIbα (transgenic mice in which human GPIbα replaces the mouse platelet GPIbα) is on record as “active”; with mouse platelet GPIbα, “not active”.
